Kd data for three substances are collected here from PMC2673426.

One data set concerns the target T1, hSBP2 (Homo sapiens) (UniProt Q96T21).
T1 sequence: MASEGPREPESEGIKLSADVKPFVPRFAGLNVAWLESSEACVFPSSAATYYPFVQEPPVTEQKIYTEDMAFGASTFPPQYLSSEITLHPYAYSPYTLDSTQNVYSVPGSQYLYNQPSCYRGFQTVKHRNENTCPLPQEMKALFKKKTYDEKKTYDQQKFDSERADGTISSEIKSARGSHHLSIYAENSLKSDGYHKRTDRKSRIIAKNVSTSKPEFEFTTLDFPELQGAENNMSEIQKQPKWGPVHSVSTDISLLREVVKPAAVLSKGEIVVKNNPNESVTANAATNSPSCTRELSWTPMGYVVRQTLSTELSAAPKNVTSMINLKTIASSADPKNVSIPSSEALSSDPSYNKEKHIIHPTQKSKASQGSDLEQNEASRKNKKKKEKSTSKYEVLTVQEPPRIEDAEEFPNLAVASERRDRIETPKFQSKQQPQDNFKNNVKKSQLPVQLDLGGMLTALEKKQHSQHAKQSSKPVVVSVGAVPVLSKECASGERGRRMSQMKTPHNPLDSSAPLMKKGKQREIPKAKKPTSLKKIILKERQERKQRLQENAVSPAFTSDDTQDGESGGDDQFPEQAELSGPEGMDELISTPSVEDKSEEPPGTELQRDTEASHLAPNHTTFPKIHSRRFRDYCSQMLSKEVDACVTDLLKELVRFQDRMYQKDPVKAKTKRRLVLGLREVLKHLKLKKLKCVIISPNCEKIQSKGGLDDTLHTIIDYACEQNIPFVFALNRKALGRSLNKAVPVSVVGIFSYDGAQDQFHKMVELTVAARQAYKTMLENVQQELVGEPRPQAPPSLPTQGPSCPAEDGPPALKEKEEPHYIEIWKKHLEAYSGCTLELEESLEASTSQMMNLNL
In words: EMSA.

The target of data set [1] is T2, dSBP2 (Drosophila melanogaster) (UniProt Q9VSH1).
T2 sequence: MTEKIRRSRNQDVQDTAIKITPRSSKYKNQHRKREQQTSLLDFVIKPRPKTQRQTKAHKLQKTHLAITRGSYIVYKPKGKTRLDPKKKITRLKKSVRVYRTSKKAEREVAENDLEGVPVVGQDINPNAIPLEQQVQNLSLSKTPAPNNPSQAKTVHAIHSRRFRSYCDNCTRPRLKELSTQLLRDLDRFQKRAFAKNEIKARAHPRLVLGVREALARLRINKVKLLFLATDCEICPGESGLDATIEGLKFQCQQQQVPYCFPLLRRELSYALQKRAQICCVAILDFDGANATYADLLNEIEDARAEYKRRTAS
The data set is described as follows: EMSA.

Substance GPx1 SECIS (form 1) registered a Kd with hSBP2 (Homo sapiens) of 400 nM. Turning to dSelH SECIS (form 2), the Kd in data set [1] amounted to 170 nM. This counts as sub-micromolar. The substance dSelK SECIS (form 2) came in with a Kd in data set [1] of 260 nM.
